{
  "source": "paper PMC3912200",
  "about": "“Structural and Functional Characterization of Cargo-Binding Sites on the μ4-Subunit of Adaptor Protein Complex 4” (PLoS ONE, 2014)",
  "molecules": {"B1": {"name": "H256A: μ4 mutant, μ4-binding site, reported previously (protein, UniProt O00189 1-453, looked up, variant H256A)", "AP-4 complex subunit mu-1": "MISQFFILSSKGDPLIYKDFRGDSGGRDVAELFYRKLTGLPGDESPVVMHHHGRHFIHIRHSGLYLVVTTSENVSPFSLLELLSRLATLLGDYCGSLGEGTISRNVALVYELLDEVLDYGYVQTTSTEMLRNFIQTEAVVSKPFSLFDLSSVGLFGAETQQSKVAPSSAASRPVLSSRSDQSQKNEVFLDVVERLSVLIASNGSLLKVDVQGEIRLKSFLPSGSEMRIGLTEEFCVGKSELRGYGPGIRVDEVSFASSVNLDEFESHRILRLQPPQGELTVMRYQLSDDLPSPLPFRLFPSVQWDRGSGRLQVYLKLRCDLLSKSQALNVRLHLPLPRGVVSLSQELSSPEQKAELAEGALRWDLPRVQGGSQLSGLFQMDVPGPPGPPSHGLSTSASPLGLGPASLSFELPRHTCSGLQVRFLRLAFRPCGNANPHKWVRHLSHSDAYVIRI"}, "B2": {"name": "S257A: μ4 mutant, μ4-binding site, reported previously (protein, UniProt O00189 1-453, looked up, variant S257A)", "AP-4 complex subunit mu-1": "B1 AP-4 complex subunit mu-1 with A256H, S257A"}, "B3": {"name": "µ4-F255A-HA: HA-epitope-tagged full-length μ4-F255A, overexpressed (protein)", "chain": "B1 AP-4 complex subunit mu-1 with F255A, A256H", "modifications": "left off: HA, end not stated, kept"}, "B4": {"name": "R283A: μ4 mutant, μ4-binding site, reported previously (protein, UniProt O00189 1-453, looked up, variant R283A)", "AP-4 complex subunit mu-1": "B1 AP-4 complex subunit mu-1 with A256H, R283A"}, "B5": {"name": "E265A: μ4 mutant, μ4-binding site, reported previously (protein, UniProt O00189 1-453, looked up, variant E265A)", "AP-4 complex subunit mu-1": "B1 AP-4 complex subunit mu-1 with A256H, E265A"}, "B6": {"name": "L261S: μ4 mutant, μ4-binding site, Y2H construct (protein, UniProt O00189 1-453, looked up, variant L261S)", "AP-4 complex subunit mu-1": "B1 AP-4 complex subunit mu-1 with A256H, L261S"}, "B7": {"name": "R283D: μ4 mutant, μ4-binding site, Y2H construct (protein, UniProt O00189 1-453, looked up, variant R283D)", "AP-4 complex subunit mu-1": "B1 AP-4 complex subunit mu-1 with A256H, R283D"}, "B8": {"name": "µ4-R283D-HA: HA-epitope-tagged full-length μ4-R283D, overexpressed (protein)", "chain": "B1 AP-4 complex subunit mu-1 with A256H, R283D", "modifications": "left off: HA, end not stated, kept"}, "B9": {"name": "F255A: μ4 mutant, μ4-binding site, Y2H construct (protein, UniProt O00189 1-453, looked up, variant F255A)", "AP-4 complex subunit mu-1": "B1 AP-4 complex subunit mu-1 with F255A, A256H"}, "B10": {"name": "µ4-D190A-HA: HA-epitope-tagged full-length μ4-D190A, overexpressed (protein)", "chain": "B1 AP-4 complex subunit mu-1 with D190A, A256H", "modifications": "left off: HA, end not stated, kept"}, "B11": {"name": "μ4-D190S: D190S mutant of μ4 (C-terminal domain in vitro; full-length, HA-tagged or untagged, in cells) (protein)", "chain": "QQSKVAPSSAASRPVLSSRSDQSQKNEVFLSVVERLSVLIASNGSLLKVDVQGEIRLKSFLPSGSEMRIGLTEEFCVGKSELRGYGPGIRVDEVSFHSSVNLDEFESHRILRLQPPQGELTVMRYQLSDDLPSPLPFRLFPSVQWDRGSGRLQVYLKLRCDLLSKSQALNVRLHLPLPRGVVSLSQELSSPEQKAELAEGALRWDLPRVQGGSQLSGLFQMDVPGPPGPPSHGLSTSASPLGLGPASLSFELPRHTCSGLQVRFLRLAFRPCGNANPHKWVRHLSHSDAYVIRI", "modifications": "left off: GST, N-terminal, cleaved"}, "B12": {"name": "μ4-R283D: μ4 with the single mutation R283D at the μ4-binding site (C-terminal domain; untagged full-length in b45) (protein)", "chain": "B11 chain with S31D, R124D", "modifications": "left off: GST, N-terminal, cleaved"}},
  "key": {"[1]": {"system": "C-terminal domain of μ3A", "conditions": "previously shown; ref [18]; cited from earlier work", "description": "(§1) This tyrosine-based signal is related to the YXXØ motif, which is the signal contained in the cytosolic tail of transmembrane proteins that binds to a different site on the μ2 subunit of AP-2 [28], or on the μ3A subunit of AP-3 [30]. In this study, we wanted to determine whether this putative second binding site on μ4, referred here as the μ2-binding site (Figure 1, A and B), played any role in the binding to the YKFFE signal of APP ..."}, "[2]": {"molecular_target": "T1, recombinant μ4 C-terminal domain, wild-type (Homo sapiens, UniProt O00189)", "T1 construct": "recombinant C-terminal domain of human μ4 (residues 160-453); GST followed by TEV protease cleavage site (N, cleaved yes); made in house; host or cells: E. coli B834(DE3)pLysS", "T1 sequence (O00189 160-453)": "B11 chain with S31D", "test": "Isothermal titration calorimetry with wild-type μ4", "type": "binding", "conditions": "canonical YXXØ signal peptides, 28°C, pH 7.4, stoichiometry and Kd N/D", "quoted_text": "Recombinant μ4 C-terminal variants were dialyzed overnight at 4°C against excess ITC buffer (50 mM Tris-HCl, pH 7.4, 150 mM NaCl), and an APP peptide ([sequence]), a CD63 peptide (SGYEVM), or a TGN38 peptide (SDYQRL; New England Peptide, Gardner, MA) were also prepared in ITC buffer. All ITC experiments were carried out at 28°C using an iTC200 instrument (GE Healthcare). […] Titration curves were analyzed using Origin software (MicroCal). The binding constant corresponding to each μ4 construct was calculated by fitting the curves to a one-site model.\nIsothermal titration calorimetry of recombinant C-terminal domain of wild-type μ4 with the TGN38 SDYQRL peptide (C), or the CD63 SGYEVM peptide (D)."}, "[3]": {"system": "cytosolic tail of APP", "conditions": "mutations at μ4-binding site; previously identified; ref [18]; cited from earlier work", "description": "as §1"}, "[4]": {"system": "APP-GFP", "test": "Distribution of APP-GFP in MDA-MB-231 cells", "type": "cell-based, human", "conditions": "for APP redistribution (figure title): APP-GFP F615P/D664A, EEA1, TGN46 staining; for change in distribution of APP: HA-epitope-tagged constructs, 24 h after transfection, EEA1/TGN46 immunofluorescence", "method": "H4 human neuroglioma or MDA-MB-231 human mammary gland epithelial cells obtained from the American Type Culture Collection (Manassas, VA) were maintained in DMEM (H4) or DMEM/F12 (MDA-MB-231) supplemented with 10% (v/v) fetal bovine serum (FBS), 100 U/ml penicillin and 100 µg/ml streptomycin (Life Technologies). Transfections were carried out using Lipofectamine 2000 (Life Technologies) for 1 h at 37°C in the absence of FBS, and cells were analyzed 16, 24 or up to 36-h after transfection, for which we observed no notorious signs of loss in cell viability. SDS-PAGE, immunoblotting, and immunoprecipitation were performed as described. H4 cells after 16 h of transfection were washed twice with cold phosphate buffered saline supplemented with 0.1 mM CaCl2 and 1 mM MgCl2 (PBS-Ca/Mg), and incubated at 4°C for 1 h in lysis buffer (50 mM Tris-HCl pH 7.4, 150 mM NaCl, 1 mM EDTA, 1% (v/v) Triton X-100, and a cocktail of protease inhibitors). Soluble extracts were subjected to overnight immunoprecipitation at 4°C either with rabbit anti-HA-epitope antibody (kindly provided by R. Hegde, MRC Laboratory of Molecular Biology, Cambridge, UK) or with mouse antibody to the ε subunit of AP-4 (BD Biosciences) immobilized onto protein A- or a 1∶1 mix of protein A- and protein-G Sepharose beads (GE Healthcare), respectively. Soluble extracts and immunoprecipitates were processed by SDS-PAGE and blotted with horseradish peroxidase-conjugated mouse anti-HA antibody (Macs Miltenyi Biotec) or with mouse antibody to the ε subunit of AP-4.\nIndirect immunofluorescence staining of fixed, permeabilized cells was performed as previously described, using sheep polyclonal antibody anti-TGN46 (Serotec), and mouse monoclonal antibody anti-EEA1 (BD Biosciences) or rabbit polyclonal antibody anti-EEA1 (Santa Cruz Biotechnology), followed by the secondary antibodies Alexa-647–conjugated donkey anti-mouse IgG, Alexa-594–conjugated donkey anti-rabbit IgG, or Alexa-594– or -647–conjugated donkey anti-sheep IgG (Life Technologies). Images were acquired either with an Olympus FluoView FV1000 scanning unit fitted on an inverted Olympus IX81 microscope and equipped with a PlanApo 60x oil immersion objective (NA 1.40; Olympus, Melville, NY), using similar settings as described previously, or with an AxioObserver.D1 microscope equipped with a PlanApo 63x oil immersion objective (NA 1.4), and an AxioCam MRm digital camera (Carl Zeiss). Quantitative analysis of colocalization was performed as we previously described, with minor modifications. Briefly, 12-bit images were acquired under identical settings avoiding signal saturation, and corrected for noise, cross-talk, and background signals on each set of images. The signals of TGN46 or EEA1 in each set of images were used in Image J (version 1.44o; Wayne Rasband, NIH, http://imagej.nih.gov) to define masks regarded as Golgi/TGN or early endosomes localization, respectively. The percentage of localization in each compartment was calculated for each cell (n = 10–15) subtracting either the Golgi/TGN or the early endosomes mask from the total integrated pixel intensity of APP-GFP, and the remainder of the signal was considered as in the ‘rest of the cell’.\nWe next examined the functional role of both the μ2- and the μ4-binding site of μ4 on the intracellular trafficking of APP. We have shown that the YKFFE-μ4 interaction is functional in vivo because its disruption by depletion of μ4 by RNAi produces a shift in the distribution of APP from endosomes to the TGN [18]. To evaluate now the function of each binding site for tyrosine-based signals, we tested a dominant-negative effect by overexpressing untagged or HA-epitope-tagged full-length wild-type μ4 or the variants untagged or HA-epitope-tagged μ4-D190A, μ4-D190S, μ4-F255A or μ4-R283D in H4 neuroglioma cells, as well as in MDA-MB-231 mammary gland epithelial cells, and examined by immunofluorescence the distribution of APP-GFP. […]"}},
  "note": "Where a chain is given by its changes, count along the chain named. Numbers in names are those of the source.",
  "data": [
    {"molecule": "SDYQRL [TGN38 SDYQRL peptide, peptide bearing the canonical YXXØ signal of TGN38]", "values": [
      {"measurement": "binding to C-terminal domain of μ3A", "setting": "[1]", "result": "bind well"},
      {"measurement": "interaction (ITC)", "setting": "[2]", "result": "undetectable"}
    ]},
    {"molecule": "SGYEVM [CD63 SGYEVM peptide, peptide bearing the canonical YXXØ signal of CD63]", "values": [
      {"measurement": "binding to C-terminal domain of μ3A", "setting": "[1]", "result": "bind well"},
      {"measurement": "interaction (ITC)", "setting": "[2]", "result": "undetectable"}
    ]},
    {"molecule": "B1", "values": [
      {"measurement": "effect of mutation on binding to the APP YKFFE signal", "setting": "[3]", "result": "null effect"}
    ]},
    {"molecule": "B2", "values": [
      {"measurement": "effect of mutation on binding to the APP YKFFE signal", "setting": "[3]", "result": "null effect"}
    ]},
    {"molecule": "B3", "values": [
      {"measurement": "APP redistribution (figure title)", "setting": "[4]; 24 h", "result": "APP redistributes from endosomes to the TGN"},
      {"measurement": "change in distribution of APP", "setting": "[4]", "result": "strong redistribution of APP from endosomes to the TGN"}
    ]},
    {"molecule": "B4", "values": [
      {"measurement": "effect of mutation on binding to the APP YKFFE signal", "setting": "[3]", "result": "null effect"}
    ]},
    {"molecule": "B5", "values": [
      {"measurement": "effect of mutation on binding to the APP YKFFE signal", "setting": "[3]", "result": "null effect"}
    ]},
    {"molecule": "B6", "values": [
      {"measurement": "effect of mutation on binding to the APP YKFFE signal", "setting": "[3]", "result": "sensitivity"}
    ]},
    {"molecule": "B7", "values": [
      {"measurement": "effect of mutation on binding to the APP YKFFE signal", "setting": "[3]", "result": "sensitivity"}
    ]},
    {"molecule": "B8", "values": [
      {"measurement": "APP redistribution (figure title)", "setting": "[4]; 24 h", "result": "APP redistributes from endosomes to the TGN"},
      {"measurement": "change in distribution of APP", "setting": "[4]", "result": "strong redistribution of APP from endosomes to the TGN"}
    ]},
    {"molecule": "B9", "values": [
      {"measurement": "effect of mutation on binding to the APP YKFFE signal", "setting": "[3]", "result": "sensitivity"}
    ]},
    {"molecule": "B10", "values": [
      {"measurement": "change in distribution of APP", "setting": "[4]", "result": "minor redistribution of APP to the TGN"}
    ]},
    {"molecule": "B11", "values": [
      {"measurement": "effect on localization of APP-GFP in endosomes", "setting": "[4]; either HA-epitope-tagged or untagged, 24 h", "result": "little or no effect"}
    ]},
    {"molecule": "B12", "values": [
      {"measurement": "APP redistribution (figure title)", "setting": "[4]; 24 h", "result": "APP redistributes from endosomes to the TGN"}
    ]}
  ]
}
